Measurements reported in CN108586611A (UNIV JINAN; ZHUHAI TAINUO MAIBO BIOTECHNOLOGY CO LTD; …, dated 2018).

Target: 破伤风毒素 (tetanus toxin) (Clostridium tetani, UniProt P04958 2-1315)
Sequence (P04958 2-457 limits assumed, chain 1 of 2): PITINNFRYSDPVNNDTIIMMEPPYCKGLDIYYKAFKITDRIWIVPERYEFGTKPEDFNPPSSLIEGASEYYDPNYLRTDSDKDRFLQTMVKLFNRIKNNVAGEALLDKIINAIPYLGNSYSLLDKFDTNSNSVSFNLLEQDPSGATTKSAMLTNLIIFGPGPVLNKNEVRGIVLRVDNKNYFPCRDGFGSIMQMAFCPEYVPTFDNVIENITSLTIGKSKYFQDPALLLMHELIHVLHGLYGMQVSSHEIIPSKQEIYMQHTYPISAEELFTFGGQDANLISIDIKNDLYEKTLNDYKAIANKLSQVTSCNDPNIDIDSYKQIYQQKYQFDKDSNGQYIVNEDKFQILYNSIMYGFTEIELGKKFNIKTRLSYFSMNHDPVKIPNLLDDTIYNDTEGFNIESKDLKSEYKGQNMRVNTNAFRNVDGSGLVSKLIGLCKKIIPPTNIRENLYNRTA
Sequence (P04958 458-1315 limits assumed, chain 2 of 2): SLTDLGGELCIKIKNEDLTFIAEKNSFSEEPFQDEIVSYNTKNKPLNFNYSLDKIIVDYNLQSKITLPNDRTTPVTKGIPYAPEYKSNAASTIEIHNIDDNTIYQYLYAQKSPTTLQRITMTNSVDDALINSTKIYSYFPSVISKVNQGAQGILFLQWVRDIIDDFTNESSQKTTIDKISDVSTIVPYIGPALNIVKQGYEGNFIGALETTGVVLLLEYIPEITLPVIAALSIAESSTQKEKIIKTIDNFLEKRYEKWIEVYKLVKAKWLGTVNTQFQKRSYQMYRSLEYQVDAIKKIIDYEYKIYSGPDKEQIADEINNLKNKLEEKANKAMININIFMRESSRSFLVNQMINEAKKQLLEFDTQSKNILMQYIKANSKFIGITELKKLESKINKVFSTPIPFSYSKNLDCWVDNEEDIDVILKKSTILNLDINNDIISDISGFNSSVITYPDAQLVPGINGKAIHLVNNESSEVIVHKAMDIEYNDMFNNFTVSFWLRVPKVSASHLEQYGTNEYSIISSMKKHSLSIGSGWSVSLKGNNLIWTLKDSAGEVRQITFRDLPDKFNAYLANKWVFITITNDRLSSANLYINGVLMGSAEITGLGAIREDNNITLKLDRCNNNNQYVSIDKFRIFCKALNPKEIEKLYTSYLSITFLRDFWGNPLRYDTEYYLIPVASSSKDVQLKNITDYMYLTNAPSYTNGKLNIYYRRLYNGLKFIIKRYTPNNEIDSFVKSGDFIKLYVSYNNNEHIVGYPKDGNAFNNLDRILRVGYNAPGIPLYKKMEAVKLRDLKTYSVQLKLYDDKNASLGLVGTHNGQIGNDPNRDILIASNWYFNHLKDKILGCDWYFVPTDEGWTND

B1: TRN1014抗体 (重组全人源抗破伤风毒素单克隆抗体) (antibody, V domains shown)
VH: EVQLVESGGDLVPPGGSLRLSCVASGFTFRNYWMNWVRQAPGQGLQWVASIKDDGTESQYLESVKGRFTISRDNAKNSLSLQMDSLRAEDTALYFCTRVGGFYFGSERYYKGGDDVWGQGTTVTVSS
VL: DIVLTQSPSSLSASVGDRVTFTCRASQTISNYLHWYQQKPGQAPELLIFAASNRQGGVPSRFRGSGSGTDFTLTISPLEADDFATYYCQQSYSSPRTFGQGTKLEIK
- Kd: 1.1 nM
- koff: 6.07e-05 s⁻¹
- kon: 55100 M⁻¹ s⁻¹
